{"source": "patent US20240398942A1", "about": "“USE OF ANTI-CD40 ANTIBODY” (CHIA TAI TIANQING PHARMACEUTICAL GROUP CO., LTD., priority 2021, published 2024)", "molecules": {"B1": {"name": "huC1H1-V2: humanized C1H1 anti-CD40 antibody, VH SEQ ID NO: 20 X1=S, VL SEQ ID NO: 24 X1=K X2=F, human IgG2/κ (antibody, V domains shown)", "VH": "EVQLVESGGGLVKPGGSLRLSCAASGFTFSNYGISWVRQAPGKGLEWVXSISSGGDNTYYPDNVKGRFTISRDNAKNSLYLQMNSLRAEDTAVYYCARAGEKAMDYWGQGTLVTVSS", "VL": "EIVLTQSPATLSLSPGERATLSCRASQTINNNLHWYQQKPGQAPRLLIXYASQSISGIPARFSGSGSGTDFTLTISSLEPEDFAVYXCQQFSSWPLTFGGGTKVEIK", "modifications": "not fully specified; variable positions X1=S; VL X1=K X2=F; IgG2/kappa constant; VH of huC1H1-V1 to huC1H1-V4; VARIANT 49 X can be A or S; VL of huC1H1-V1 to huC1H1-V4; VARIANT 49 X can be K or Y; VARIANT 87 X can be F or Y"}}, "key": {"[1]": {"tested_on": "human B-cell lymphoma Ramos cells", "experiment": "Efficacy of anti-CD40 antibody and anlotinib, Ramos subcutaneous xenograft mouse model", "assay_type": "in vivo", "protocol": "Human B-cell lymphoma Ramos cells (purchased from the Cell Bank of the Chinese Academy of Sciences) were cultured in an RPMI1640 medium containing 10% of fetal bovine serum and penicillin-streptomycin. The cells were inoculated in a 37° C./5% CO2 incubator until the logarithmic growth phase and collected for grafting.\nThe mice used in this study were NOD-Scid mice (purchased from Shanghai Lingchang Biotechnology Co., Ltd.) aged about 6 weeks and bred in specific pathogen-free conditions in 12/12-hour light/dark cycles. The health status of the animals was monitored daily.\nEach mouse was inoculated subcutaneously with 1×10^7 Ramos cells. When the tumor grew to 80-100 mm^3, the mice were divided into groups of 10 according to the tumor volume. The administration regimen is shown in Table 10, with the first dosing day designated as DO. Antibody huC1H1-V2 and IgG2 (Biointron, Cat. No. B107803) were both formulated to desired concentrations with normal saline, and anlotinib dihydrochloride was formulated at desired concentrations with distilled water. At the end of study (D14), the animals were sacrificed by CO2 anesthesia and dissected to give the tumors. The tumors were photographed.\nThe tumor diameters were measured twice weekly with a vernier caliper. Tumor volume (V)=½×a×b^2, wherein a and b denote length and width, respectively; T/C (%)=(T−T0)/(C−C0)×100, wherein T and C refer to the tumor volumes of the treatment group and the IgG2 control group on day 14, respectively, and TO and C0 refer to the tumor volumes of the treatment group and IgG2 control group on day 0, respectively; the tumor growth inhibition % (TGI %)=100−T/C (%). When the tumor regressed, the tumor growth inhibition % (TGI %)=100−(T−T0)/T0×100. If the tumor volume was smaller than the initial volume, i.e., T<T0 or C<C0, the outcome was defined as partial regression (PR); if the tumors completely disappeared, i.e., the outcome was defined as complete regression (CR)."}, "[2]": {"tested_on": "human B-cell lymphoma Ramos cells", "experiment": "In vivo anti-tumor efficacy, human B-cell lymphoma Ramos xenograft model", "conditions": "for Tumor volume on day 0: baseline at grouping; for Tumor volume on day 0 / Tumor volume on day 14: mean ± standard error; for TGI: day 14; for T/C: day 14 vs isotype control", "protocol": "The in vivo anti-tumor activity of antibody huC1H1-V2 was measured in NOD-SCID mice. Briefly, 3×10^7 human B-cell lymphoma Ramos cells (Chinese Academy of Sciences) were injected subcutaneously in the right axilla of NOD-SCID mice. The tumor volume was measured using an electronic vernier caliper and calculated according to the formula (length×width^2)/2. When the mean tumor volume reached about 100-150 mm^3, 40 tumor-bearing mice were selected and randomly divided into 4 groups (10 mice per group), with the date of grouping designated as day 0. According to the administration regimen shown in Table 6, the mice were intravenously administered with the isotype control antibody (anti-HEL-Human IgG2 Isotype-control, also referred to as IgG2, Biointron Inc.) or antibody huC1H1-V2 via tail veins since day 0."}}, "note": "“And” between values parts separate entries of the source, which are not always exact repeats. Equal entries are not always repeated. Marks after values point to notes of the source that are not given here.", "data": [{"molecule": "B1", "values": [{"measurement": "Mean tumor volume (mean ± SD) D 0", "setting": "[1]; baseline, huC1H1-V2 0.5 mg/kg i.p. once every 2 days × 8, anlotinib dihydrochloride 1 mg/kg intragastric daily × 15", "value": "89.3 ± 0.8", "unit": "mm^3"}, {"measurement": "Mean tumor volume (mean ± SD) D 14", "setting": "[1]; huC1H1-V2 0.5 mg/kg i.p. once every 2 days × 8, anlotinib dihydrochloride 1 mg/kg intragastric daily × 15", "value": "1546.7 ± 198.5", "unit": "mm^3"}, {"measurement": "TGI D 14 (tumor growth inhibition rate)", "setting": "[1]; huC1H1-V2 0.5 mg/kg i.p., anlotinib dihydrochloride 1 mg/kg intragastric", "value": 58, "unit": "%"}, {"measurement": "Tolerability (symptoms such as weight loss)", "setting": "[1]; huC1H1-V2 0.5 mg/kg i.p., anlotinib dihydrochloride 1 mg/kg intragastric, tumor-bearing mice", "value": "well tolerated"}, {"measurement": "T/C D 14", "setting": "[1]; vs IgG2 group, huC1H1-V2 0.5 mg/kg i.p., anlotinib dihydrochloride 1 mg/kg intragastric", "value": 42, "unit": "%"}, {"measurement": "Tumor volume on day 0", "setting": "[2]; 1.5 mg/kg i.v. Q2D × 8 doses", "value": "111.1 ± 2.0", "unit": "mm^3"}, {"measurement": "Tumor volume on day 14", "setting": "[2]; 1.5 mg/kg i.v. Q2D × 8 doses", "value": "431.9 ± 58.0*** mm^3"}, {"measurement": "TGI", "setting": "[2]; 1.5 mg/kg i.v. Q2D", "value": 88, "unit": "%"}, {"measurement": "T/C", "setting": "[2]; 1.5 mg/kg i.v. Q2D", "value": 12, "unit": "%"}, {"measurement": "Tumor volume on day 0", "setting": "[2]; 5 mg/kg i.v. Q2D × 8 doses", "value": "114.5 ± 1.5", "unit": "mm^3"}, {"measurement": "Tumor volume on day 14", "setting": "[2]; 5 mg/kg i.v. Q2D × 8 doses", "value": "230.2 mm^3 and 230.2 ± 36.3*** mm^3"}, {"measurement": "TGI", "setting": "[2]; 5 mg/kg i.v. Q2D", "value": 96, "unit": "%"}, {"measurement": "T/C", "setting": "[2]; 5 mg/kg i.v. Q2D", "value": 4, "unit": "%"}, {"measurement": "Tumor volume on day 0", "setting": "[2]; 15 mg/kg i.v. Q2D × 8 doses", "value": "114.3 ± 1.3", "unit": "mm^3"}, {"measurement": "Tumor volume on day 14", "setting": "[2]; 15 mg/kg i.v. Q2D × 8 doses", "value": "242.5 ± 22.1*** mm^3"}, {"measurement": "TGI", "setting": "[2]; 15 mg/kg i.v. Q2D", "value": 95, "unit": "%"}, {"measurement": "T/C", "setting": "[2]; 15 mg/kg i.v. Q2D", "value": 5, "unit": "%"}, {"measurement": "Tolerability (weight loss or other symptoms)", "setting": "[2]; 1.5, 5, 15 mg/kg i.v. Q2D × 8 doses, tumor-bearing mice", "value": "well tolerated"}]}]}
